The values that follow come from patent publication US20100297135A1.

Assay [1] has as its target wild type human GM-CSF (human) (UniProt P04141). The experiment in a line: SPR (Biacore), human GM-CSF coated on CM5 chip, antibody injected. (In general: SPR reads the build-up and loss of mass on a sensor chip optically.)
In assay [2] the target is human GM-CSF mutant M5b (S96 to N110 replaced by murine sequence) (human). The experiment in a line: semi-quantitative ELISA; GM-CSF polypeptide coated in 2-fold dilutions (x axis = coating concentration), BD antibody fixed at 310 ng/ml, rabbit anti-rat IgG-HRP, absorbance 450 nm. For orientation: An ELISA detects its analyte on a solid surface through an enzyme-linked reagent.

Assay [3] deals with human GM-CSF mutant M5 (I101 to V117 replaced by murine sequence) (human). The description is as above.

Where only a bound is given, the exact number is not on record here.

Chain of wild type human GM-CSF (human) (P04141 other isoform, or with tags, fused parts or gaps limits assumed): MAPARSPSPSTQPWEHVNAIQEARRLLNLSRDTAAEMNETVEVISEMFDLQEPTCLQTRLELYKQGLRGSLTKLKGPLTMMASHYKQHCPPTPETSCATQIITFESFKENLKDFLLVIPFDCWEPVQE
Chain of human GM-CSF mutant M5 (I101 to V117 replaced by murine sequence) (human) (P04141 other isoform, or with tags, fused parts or gaps mutant): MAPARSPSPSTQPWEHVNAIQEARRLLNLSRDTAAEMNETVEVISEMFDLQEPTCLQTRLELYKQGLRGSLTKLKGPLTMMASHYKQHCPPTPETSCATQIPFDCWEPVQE
Chain of human GM-CSF mutant M5b (S96 to N110 replaced by murine sequence) (human) (P04141 other isoform, or with tags, fused parts or gaps mutant): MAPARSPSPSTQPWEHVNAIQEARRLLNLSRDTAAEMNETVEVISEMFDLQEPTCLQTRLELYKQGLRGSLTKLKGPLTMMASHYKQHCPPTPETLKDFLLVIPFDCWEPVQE

The Kd is the equilibrium constant for the complex coming apart. By koff is commonly meant a measure of how fast the partners let go of each other. Lower therefore signals a long-lived complex. In general, kon refers to a measure of how fast the partners come together. Read a low kon as slower complex formation. The term EC50 (read off the curve) denotes the concentration needed to bring the measured effect to its halfway point. In assay [1], “commercially available rat anti-human GM-CSF antibody from BD Biosciences (Cat No. 554501)” had a Ka of over 5.2e+09 M⁻¹, a dissociation constant (Kd) of under 0.19 nM, a koff of under 1e-05 s⁻¹ and an on-rate (kon) of 52000 M⁻¹ s⁻¹. The EC50 (read off the curve) in assay [2] came to 400 µg/mL. For the same substance, in assay [3], the EC50 (read off the curve) was 300 µg/mL.
